# Key:
# OR5B12 = target: T1, OR5B12 (Homo sapiens, UniProt Q96R08, C141R); test: CRE-luciferase assay, HEK293T cells expressing OR5B12 (wild-type / modified C-terminus); type: cell-based; conditions: for Fold-improvement potency / Fold-improvement threshold: changed C-term. vs wild-type; for % of the activation by the optimized sequence RNKEVKDALKRLLKRKCC: OR5B12 variant
# T1 construct: Improved functional expression of modified OR-genes containing the truncated, optimized C-terminus; expressed in transfected cells; host or cells: HEK293T stably expressing human RTP1S(V227I) and RTP2(L220R)
# T1 sequence (Q96R08 with tags, fused parts or gaps C141R): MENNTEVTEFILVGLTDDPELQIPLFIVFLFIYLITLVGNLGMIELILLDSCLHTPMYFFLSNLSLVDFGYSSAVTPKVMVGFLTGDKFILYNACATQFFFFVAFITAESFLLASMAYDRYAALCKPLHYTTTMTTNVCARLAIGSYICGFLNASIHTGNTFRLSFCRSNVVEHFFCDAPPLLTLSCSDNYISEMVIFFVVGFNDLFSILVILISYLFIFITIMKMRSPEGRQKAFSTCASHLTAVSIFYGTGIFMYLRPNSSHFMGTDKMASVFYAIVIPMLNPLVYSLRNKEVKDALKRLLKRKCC
# OR7C1 = target: T2, OR7C1 (Homo sapiens, UniProt O76099, D296E/G302K/M297V/R299D/T295K/V126I); test: CRE-luciferase assay, HEK293T cells expressing OR7C1 (wild-type / modified C-terminus); type: cell-based; conditions: OR7C1 variant, 1 μM Ambermax
# T2 construct: Improved functional expression of modified OR-genes containing the truncated, optimized C-terminus; expressed in transfected cells; host or cells: HEK293T stably expressing human RTP1S(V227I) and RTP2(L220R)
# T2 sequence (O76099 with tags, fused parts or gaps V126I/T295K/D296E/M297V/R299D/G302K): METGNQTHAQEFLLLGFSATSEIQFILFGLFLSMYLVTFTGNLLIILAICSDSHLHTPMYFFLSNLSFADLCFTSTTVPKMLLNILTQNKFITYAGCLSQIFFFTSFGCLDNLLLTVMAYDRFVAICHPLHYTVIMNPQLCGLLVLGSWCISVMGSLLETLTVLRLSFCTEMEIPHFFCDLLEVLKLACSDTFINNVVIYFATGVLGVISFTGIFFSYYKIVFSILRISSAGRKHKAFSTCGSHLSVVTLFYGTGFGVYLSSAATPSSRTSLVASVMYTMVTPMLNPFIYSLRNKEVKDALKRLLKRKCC
# Source text: To test for possible variants of the sequence […]CC (SEQ ID NO: 86) leading to similar improved functional expression, different point mutations were introduced into the first 16 amino acids of this sequence (corresponding to […], SEQ ID NO: 10) and the variants were fused after the TM7 with OR7C1. […] The test concentrations were selected to fall into the range of partial activity of the wild-type sequence.
compound,measurement,setting,value
"CCCCCC1C(=O)CCC1CC(=O)OC (racemic) [Hedione HC, reference compound]",Comments on efficacy,OR5B12,4-fold lower
same,Detection threshold; concentration for 2-fold induction,OR5B12; changed C-term. SEQ ID NO: 86,8.8 µM
same,EC50,OR5B12; changed C-term. SEQ ID NO: 86,18.3 µM
same,Fold-improvement potency,OR5B12,3.8
same,Fold-improvement threshold,OR5B12,11
same,Detection threshold; concentration for 2-fold induction,OR5B12; wild-type,96 µM
same,EC50,OR5B12; wild-type,69 µM
"CCCCCC1C(=O)CCC1CC(=O)OC (stereo not drawn) [Hedione, reference compound]",Comments on efficacy,OR5B12,type only 1.75-
same,Detection threshold; concentration for 2-fold induction,OR5B12; changed C-term. SEQ ID NO: 86,29 µM
same,EC50,OR5B12; changed C-term. SEQ ID NO: 86,58.3 µM
same,Fold-improvement potency,OR5B12,>5
same,Fold-improvement threshold,OR5B12,>9
same,Detection threshold; concentration for 2-fold induction,OR5B12; wild-type,(>>250) μM
same,EC50,OR5B12; wild-type,> 250 µM
SEQ ID NO: 134 (RNKEVKDALKRLLKRKCCC; source 1..19: note = C-terminal domain sequence),% of the activation by the optimized sequence RNKEVKDALKRLLKRKCC,OR5B12; 31 μM Hedione HC,168.91%
same,% of the activation by the optimized sequence RNKEVKDALKRLLKRKCC,OR5B12; 62.5 μM Hedione HC,121.37%
SEQ ID NO: 135 (RNKEVKDALKRLLKRKCCF; source 1..19: note = C-terminal domain sequence),% of the activation by the optimized sequence RNKEVKDALKRLLKRKCC,OR5B12; 31 μM Hedione HC,207.32%
same,% of the activation by the optimized sequence RNKEVKDALKRLLKRKCC,OR5B12; 62.5 μM Hedione HC,127.22%
SEQ ID NO: 136 (RNKEVKDALKRLLKRKCCL; source 1..19: note = C-terminal domain sequence),% of the activation by the optimized sequence RNKEVKDALKRLLKRKCC,OR5B12; 31 μM Hedione HC,533.84%
same,% of the activation by the optimized sequence RNKEVKDALKRLLKRKCC,OR5B12; 62.5 μM Hedione HC,189.64%
SEQ ID NO: 137 (RNKEVKDALKRLLKRKCCM; source 1..19: note = C-terminal domain sequence),% of the activation by the optimized sequence RNKEVKDALKRLLKRKCC,OR5B12; 31 μM Hedione HC,177.47%
same,% of the activation by the optimized sequence RNKEVKDALKRLLKRKCC,OR5B12; 62.5 μM Hedione HC,182.76%
SEQ ID NO: 138 (RNKEVKDALKRLLKRKCCS; source 1..19: note = C-terminal domain sequence),% of the activation by the optimized sequence RNKEVKDALKRLLKRKCC,OR5B12; 31 μM Hedione HC,176.99%
same,% of the activation by the optimized sequence RNKEVKDALKRLLKRKCC,OR5B12; 62.5 μM Hedione HC,75.63%
SEQ ID NO: 139 (RNKEVKDALKRLLKRKCCP; source 1..19: note = C-terminal domain sequence),% of the activation by the optimized sequence RNKEVKDALKRLLKRKCC,OR5B12; 31 μM Hedione HC,98.68%
same,% of the activation by the optimized sequence RNKEVKDALKRLLKRKCC,OR5B12; 62.5 μM Hedione HC,98.17%
SEQ ID NO: 140 (RNKEVKDALKRLLKRKCCA; source 1..19: note = C-terminal domain sequence),% of the activation by the optimized sequence RNKEVKDALKRLLKRKCC,OR5B12; 31 μM Hedione HC,230.04%
same,% of the activation by the optimized sequence RNKEVKDALKRLLKRKCC,OR5B12; 62.5 μM Hedione HC,143.71%
SEQ ID NO: 141 (RNKEVKDALKRLLKRKCCY; source 1..19: note = C-terminal domain sequence),% of the activation by the optimized sequence RNKEVKDALKRLLKRKCC,OR5B12; 31 μM Hedione HC,298.48%
same,% of the activation by the optimized sequence RNKEVKDALKRLLKRKCC,OR5B12; 62.5 μM Hedione HC,274.09%
SEQ ID NO: 142 (RNKEVKDALKRLLKRKCCH; source 1..19: note = C-terminal domain sequence),% of the activation by the optimized sequence RNKEVKDALKRLLKRKCC,OR5B12; 31 μM Hedione HC,142.62%
same,% of the activation by the optimized sequence RNKEVKDALKRLLKRKCC,OR5B12; 62.5 μM Hedione HC,129.19%
SEQ ID NO: 143 (RNKEVKDALKRLLKRKCCN; source 1..19: note = C-terminal domain sequence),% of the activation by the optimized sequence RNKEVKDALKRLLKRKCC,OR5B12; 31 μM Hedione HC,137.13%
same,% of the activation by the optimized sequence RNKEVKDALKRLLKRKCC,OR5B12; 62.5 μM Hedione HC,91.94%
SEQ ID NO: 144 (RNKEVKDALKRLLKRKCCD; source 1..19: note = C-terminal domain sequence),% of the activation by the optimized sequence RNKEVKDALKRLLKRKCC,OR5B12; 31 μM Hedione HC,86.54%
same,% of the activation by the optimized sequence RNKEVKDALKRLLKRKCC,OR5B12; 62.5 μM Hedione HC,56.54%
SEQ ID NO: 145 (RNKEVKDALKRLLKRKCCK; source 1..19: note = C-terminal domain sequence),% of the activation by the optimized sequence RNKEVKDALKRLLKRKCC,OR5B12; 31 μM Hedione HC,280.71%
same,% of the activation by the optimized sequence RNKEVKDALKRLLKRKCC,OR5B12; 62.5 μM Hedione HC,237.30%
SEQ ID NO: 189 (RNHEVKDALKRLLKRKCC; source 1..18: note = C-terminal domain sequence),% of the activation by the optimized sequence RNKEVKDALKRLLKRKCC,OR7C1,16.2%
SEQ ID NO: 190 (RNKEVKDGLKRLLKRKCC; source 1..18: note = C-terminal domain sequence),% of the activation by the optimized sequence RNKEVKDALKRLLKRKCC,OR7C1,4.6%
SEQ ID NO: 191 (RNKEVKDVLKRLLKRKCC; source 1..18: note = C-terminal domain sequence),% of the activation by the optimized sequence RNKEVKDALKRLLKRKCC,OR7C1,3.9%
SEQ ID NO: 192 (RNKEVKDAMKRLLKRKCC; source 1..18: note = C-terminal domain sequence),% of the activation by the optimized sequence RNKEVKDALKRLLKRKCC,OR7C1,27.0%
SEQ ID NO: 193 (RNKEVKDALKHLLKRKCC; source 1..18: note = C-terminal domain sequence),% of the activation by the optimized sequence RNKEVKDALKRLLKRKCC,OR7C1,12.3%
SEQ ID NO: 194 (RNKEVKDALKRVVKRKCC; source 1..18: note = C-terminal domain sequence),% of the activation by the optimized sequence RNKEVKDALKRLLKRKCC,OR7C1,30.4%
SEQ ID NO: 195 (RNKEVKDALKRLRKRKCC; source 1..18: note = C-terminal domain sequence),% of the activation by the optimized sequence RNKEVKDALKRLLKRKCC,OR7C1,14.1%
SEQ ID NO: 196 (RNKEVKDALKRLKKRKCC; source 1..18: note = C-terminal domain sequence),% of the activation by the optimized sequence RNKEVKDALKRLLKRKCC,OR7C1,5.7%
SEQ ID NO: 197 (RNKEVKDALKRLLERKCC; source 1..18: note = C-terminal domain sequence),% of the activation by the optimized sequence RNKEVKDALKRLLKRKCC,OR7C1,5.6%
SEQ ID NO: 321 (RNKEVKCALKRLLKRKCC; source 1..18: note = C-terminal domain sequence),% of the activation by the optimized sequence RNKEVKDALKRLLKRKCC,OR7C1,46.0%
SEQ ID NO: 322 (RNKEVKFALKRLLKRKCC; source 1..18: note = C-terminal domain sequence),% of the activation by the optimized sequence RNKEVKDALKRLLKRKCC,OR7C1,41.1%
SEQ ID NO: 323 (RNKEVKHALKRLLKRKCC; source 1..18: note = C-terminal domain sequence),% of the activation by the optimized sequence RNKEVKDALKRLLKRKCC,OR7C1,65.6%
SEQ ID NO: 324 (RNKEVKIALKRLLKRKCC; source 1..18: note = C-terminal domain sequence),% of the activation by the optimized sequence RNKEVKDALKRLLKRKCC,OR7C1,81.0%
SEQ ID NO: 325 (RNKEVKLALKRLLKRKCC; source 1..18: note = C-terminal domain sequence),% of the activation by the optimized sequence RNKEVKDALKRLLKRKCC,OR7C1,108.0%
SEQ ID NO: 326 (RNKEVKMALKRLLKRKCC; source 1..18: note = C-terminal domain sequence),% of the activation by the optimized sequence RNKEVKDALKRLLKRKCC,OR7C1,107.6%
SEQ ID NO: 327 (RNKEVKPALKRLLKRKCC; source 1..18: note = C-terminal domain sequence),% of the activation by the optimized sequence RNKEVKDALKRLLKRKCC,OR7C1,−3.7%
SEQ ID NO: 328 (RNKEVKSALKRLLKRKCC; source 1..18: note = C-terminal domain sequence),% of the activation by the optimized sequence RNKEVKDALKRLLKRKCC,OR7C1,99.1%
SEQ ID NO: 329 (RNKEVKTALKRLLKRKCC; source 1..18: note = C-terminal domain sequence),% of the activation by the optimized sequence RNKEVKDALKRLLKRKCC,OR7C1,129.9%
SEQ ID NO: 330 (RNKEVKWALKRLLKRKCC; source 1..18: note = C-terminal domain sequence),% of the activation by the optimized sequence RNKEVKDALKRLLKRKCC,OR7C1,17.4%
SEQ ID NO: 331 (RNKEVKYALKRLLKRKCC; source 1..18: note = C-terminal domain sequence),% of the activation by the optimized sequence RNKEVKDALKRLLKRKCC,OR7C1,59.4%
Ser Gln,% of the activation by the optimized sequence RNKEVKDALKRLLKRKCC,OR7C1,1.0%
Ser Ile,% of the activation by the optimized sequence RNKEVKDALKRLLKRKCC,OR7C1,225.3%
Tyr Arg,% of the activation by the optimized sequence RNKEVKDALKRLLKRKCC,OR7C1,127.8%
Tyr Leu,% of the activation by the optimized sequence RNKEVKDALKRLLKRKCC,OR7C1,95.4%
Tyr Pro,% of the activation by the optimized sequence RNKEVKDALKRLLKRKCC,OR7C1,221.7%
Tyr Tyr,% of the activation by the optimized sequence RNKEVKDALKRLLKRKCC,OR7C1,108.3%
Val Met,% of the activation by the optimized sequence RNKEVKDALKRLLKRKCC,OR7C1,1.3%
Val Ser,% of the activation by the optimized sequence RNKEVKDALKRLLKRKCC,OR7C1,4.3%

# — patent publication US20260210939A1, “MODIFIED OLFACTORY RECEPTORS” (GIVAUDAN SA, priority 2022, published 2026)
